Source: publication PMC4009770, “A Comparison of Two Single-Stranded DNA Binding Models by Mutational Analysis of APOBEC3G”

Key:
Assay in all cases: EMSA; EMSA: 10 mM Tris-HCl pH 7.5, 50 mM NaCl, 0.5% NP-40, 4% glycerol, 1 mM MgCl2, 0.5 mM EDTA, 1 mM DTT, 20 min room temperature, 4 pmol oligo in 20 uL, gel at 4 C; NMR: 50 mM sodium phosphate pH 7.4, 1 mM DTT, 50 uM ZnCl2, 300 uM protein
[1] = target: A3G R313E/R320E (human, UniProt Q9HC16 1-384, R313E;R320E); details: protein: recombinant; tags: C-terminal Strep; label: 5' Alexa488; single strand
Sequence of A3G R313E/R320E (Q9HC16 whole entry R313E/R320E): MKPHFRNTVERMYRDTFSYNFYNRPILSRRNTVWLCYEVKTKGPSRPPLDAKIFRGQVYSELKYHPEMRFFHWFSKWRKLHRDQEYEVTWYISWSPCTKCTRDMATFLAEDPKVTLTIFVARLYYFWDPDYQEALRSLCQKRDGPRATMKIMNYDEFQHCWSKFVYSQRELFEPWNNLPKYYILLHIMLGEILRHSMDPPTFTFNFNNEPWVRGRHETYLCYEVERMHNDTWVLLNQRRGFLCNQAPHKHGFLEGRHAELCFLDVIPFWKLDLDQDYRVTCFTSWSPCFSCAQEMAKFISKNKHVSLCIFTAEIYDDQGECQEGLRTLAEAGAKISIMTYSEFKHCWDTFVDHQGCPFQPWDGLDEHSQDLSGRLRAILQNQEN

[2] = target: A3G R213E/R215E (human, UniProt Q9HC16 1-384, R213E;R215E); details: protein: recombinant; tags: C-terminal Strep; label: 5' Alexa488; single strand
Sequence of A3G R213E/R215E (Q9HC16 whole entry R213E/R215E): as the sequence (Q9HC16 whole entry R313E/R320E) above, with R213E, R215E, E313R, E320R counted along it

[3] = target: A3G E67Q (human, UniProt Q9HC16 1-384, E67Q); details: protein: recombinant; tags: C-terminal Strep; label: 5' Alexa488; single strand
Sequence of A3G E67Q (Q9HC16 whole entry E67Q): as the sequence (Q9HC16 whole entry R313E/R320E) above, with E67Q, E313R, E320R counted along it

[4] = target: A3G R313E (human, UniProt Q9HC16 1-384, R313E); details: protein: recombinant; tags: C-terminal Strep; label: 5' Alexa488; single strand
Sequence of A3G R313E (Q9HC16 whole entry R313E): as the sequence (Q9HC16 whole entry R313E/R320E) above, with E320R counted along it

[5] = target: A3G R215E (human, UniProt Q9HC16 1-384, R215E); details: protein: recombinant; tags: C-terminal Strep; label: 5' Alexa488; single strand
Sequence of A3G R215E (Q9HC16 whole entry R215E): as the sequence (Q9HC16 whole entry R313E/R320E) above, with R215E, E313R, E320R counted along it

[6] = target: A3G E259Q (human, UniProt Q9HC16 1-384, E259Q); details: protein: recombinant; tags: C-terminal Strep; label: 5' Alexa488; single strand
Sequence of A3G E259Q (Q9HC16 whole entry E259Q): as the sequence (Q9HC16 whole entry R313E/R320E) above, with E259Q, E313R, E320R counted along it

[7] = target: A3G-S wild type (human, UniProt Q9HC16 1-384); details: protein: recombinant; tags: C-terminal Strep (STP cleaved by TEV); label: 5' Alexa488; single strand
Sequence of A3G-S wild type (Q9HC16 whole entry): as the sequence (Q9HC16 whole entry R313E/R320E) above, with E313R, E320R counted along it

[8] = target: A3G R374E/R376E (human, UniProt Q9HC16 1-384, R374E;R376E); details: protein: recombinant; tags: C-terminal Strep; label: 5' Alexa488; single strand
Sequence of A3G R374E/R376E (Q9HC16 whole entry R374E/R376E): as the sequence (Q9HC16 whole entry R313E/R320E) above, with E313R, E320R, R374E, R376E counted along it

Measured: binding result

B1: Alexa488 69-mer (ssDNA)
DNA: GAAGAGGAAGGGAAGAAAGAGAAAGGGAGACCCAAAGAGGAAAGGTGAGGAGGTTAATTTGTGTAAATA
binds: all assays above
